Reference: patent publication US20150051149A1 (published 2015)
Each block holds one binder with its values, some of them ahead of it.

Biological target: T1, human PXR-GST (Invitrogen) (human, UniProt O75469 111-434, limits assumed)
T1 construct: Captured on an anti-GST antibody chip; also called GST-PXR; GST-tagged PXR; not shown: GST tag
T1 sequence (looked up): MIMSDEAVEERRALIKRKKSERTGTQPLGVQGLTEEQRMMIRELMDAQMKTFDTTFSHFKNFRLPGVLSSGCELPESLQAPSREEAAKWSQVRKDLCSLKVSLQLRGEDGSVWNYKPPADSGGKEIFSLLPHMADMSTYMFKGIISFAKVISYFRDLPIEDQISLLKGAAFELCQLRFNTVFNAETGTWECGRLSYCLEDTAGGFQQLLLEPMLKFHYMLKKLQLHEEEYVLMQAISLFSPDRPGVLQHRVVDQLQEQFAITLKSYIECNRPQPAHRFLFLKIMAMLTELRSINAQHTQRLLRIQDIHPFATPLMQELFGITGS
Test: SPR, Biacore T100, human PXR-GST captured on anti-GST antibody

kon: 16200 M⁻¹ s⁻¹
B1: Adnectin-3 (designed binder)
chain: MASTSGVSDVPRDLEVVAATPTSLLISWDAPAVPVSKYVIYYWPGALISSMQAFKVPGSKSTATISGLKPGVLYSIVVDALTGDGQGSYVWDPITITYRTEGSGSHHHHHH

kon: 162000 M⁻¹ s⁻¹
B2: Adnectin-2 (designed binder)
chain: MASTSGVSDVPRDLEVVAATPTSLLISWDAPAVTVNNYRITYQPLLQGSSIQHFDVPGSKSTATISGLKPGVGYQITVYASTYTHSKAYYSLPISIYYRTEGSGSHHHHHH
